Laboratory results from the supplement of paper PMC9233669.
Variants at the floor of the assay were thinned out.

Tests used:
biotinyl-Phe-oxazolone = assay: self-aminoacylation, catalytic enhancement (BFO) (fold over background); higher = more active; k-Seq, kA / k0A0; sequences stand for … in GGGAAUGGAUCCACAUCUACGAAUUC…UUCACUGCAGACUUGACGAAGCUG
Outline: (§1)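 Mutagenized RNA pools with a 21-nt variable region (0.43 μM) were reacted with each biotinyl-aminoacyl-oxazolone at 2–1250 μM for 90 minutes at room temperature, in 50 μL HEPES/NaCl/KCl/MgCl2/CaCl2 buffer containing 5% acetonitrile at pH 6.9–7.0. RNA captured on streptavidin was quantified by triplicate qPCR and by Illumina sequencing. The fraction reacted for each sequence was fit to a pseudo-first-order model with bootstrapping, and catalytic enhancement is the median kA divided by the uncatalyzed rate, taken as the low-activity peak of a bimodal Gaussian fit.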

biotinyl-Ile-oxazolone = assay: self-aminoacylation, catalytic enhancement (BIO) (fold over background); higher = more active; k-Seq, kA / k0A0; sequences stand for … in GGGAAUGGAUCCACAUCUACGAAUUC…UUCACUGCAGACUUGACGAAGCUG
Outline: as §1

biotinyl-Met-oxazolone = assay: self-aminoacylation, catalytic enhancement (BMO) (fold over background); higher = more active; k-Seq, kA / k0A0; sequences stand for … in GGGAAUGGAUCCACAUCUACGAAUUC…UUCACUGCAGACUUGACGAAGCUG
Outline: as §1

biotinyl-Val-oxazolone = assay: self-aminoacylation, catalytic enhancement (BVO) (fold over background); higher = more active; k-Seq, kA / k0A0; sequences stand for … in GGGAAUGGAUCCACAUCUACGAAUUC…UUCACUGCAGACUUGACGAAGCUG
Outline: as §1

biotinyl-Leu-oxazolone = assay: self-aminoacylation, catalytic enhancement (BLO) (fold over background); higher = more active; k-Seq, kA / k0A0; sequences stand for … in GGGAAUGGAUCCACAUCUACGAAUUC…UUCACUGCAGACUUGACGAAGCUG
Outline: as §1

biotinyl-Trp-oxazolone = assay: self-aminoacylation, catalytic enhancement (BWO) (fold over background); higher = more active; k-Seq, kA / k0A0; sequences stand for … in GGGAAUGGAUCCACAUCUACGAAUUC…UUCACUGCAGACUUGACGAAGCUG
Outline: as §1

In the case of “CCACACUUCACACAAUCGGUC [Fam1B.1 aminoacylation ribozyme variant]”, the self-aminoacylation (biotinyl-Phe-oxazolone) is reported as 0.775, the self-aminoacylation (biotinyl-Ile-oxazolone) is reported as 0.878 and the self-aminoacylation (biotinyl-Met-oxazolone) is reported as 0.601. It also gave a self-aminoacylation (biotinyl-Val-oxazolone) of 1.02, a self-aminoacylation (biotinyl-Leu-oxazolone) of 0.687 and a self-aminoacylation (biotinyl-Trp-oxazolone) of 0.837.

Work on “CCACACUUCACGCAAUCGGGC [Fam1B.1 aminoacylation ribozyme variant]” yielded a self-aminoacylation (biotinyl-Phe-oxazolone) of 20, a self-aminoacylation (biotinyl-Ile-oxazolone) of 2.42 and a self-aminoacylation (biotinyl-Met-oxazolone) of 2.18. It also gave a self-aminoacylation (biotinyl-Val-oxazolone) of 3.33, a self-aminoacylation (biotinyl-Leu-oxazolone) of 2.39 and a self-aminoacylation (biotinyl-Trp-oxazolone) of 2.1.

“CCACACUUCACGCAAUCGGUG [Fam1B.1 aminoacylation ribozyme variant]” was tested, and the self-aminoacylation (biotinyl-Phe-oxazolone) was 52.2, the self-aminoacylation (biotinyl-Ile-oxazolone) was 3.09 and the self-aminoacylation (biotinyl-Met-oxazolone) was 5.89. It also gave a self-aminoacylation (biotinyl-Val-oxazolone) of 3.5, a self-aminoacylation (biotinyl-Leu-oxazolone) of 7.74 and a self-aminoacylation (biotinyl-Trp-oxazolone) of 6.24.

In the case of “CCACACUUCACGCAAUCGUUC [Fam1B.1 aminoacylation ribozyme variant]”, the self-aminoacylation (biotinyl-Phe-oxazolone) is reported as 0.716, the self-aminoacylation (biotinyl-Ile-oxazolone) is reported as 0.725 and the self-aminoacylation (biotinyl-Met-oxazolone) is reported as 0.717. For the same sequence, the self-aminoacylation (biotinyl-Val-oxazolone) was 0.905, the self-aminoacylation (biotinyl-Leu-oxazolone) was 0.794 and the self-aminoacylation (biotinyl-Trp-oxazolone) was 0.939.

Sequence “CCACACUUCACGCAGUCGGUC [Fam1B.1 aminoacylation ribozyme variant]” has a self-aminoacylation (biotinyl-Phe-oxazolone) of 0.859, a self-aminoacylation (biotinyl-Ile-oxazolone) of 1.13 and a self-aminoacylation (biotinyl-Met-oxazolone) of 0.94. It also gave a self-aminoacylation (biotinyl-Val-oxazolone) of 1.47, a self-aminoacylation (biotinyl-Leu-oxazolone) of 1.31 and a self-aminoacylation (biotinyl-Trp-oxazolone) of 0.719.

With “CCACACUUCAGGCAAUCAGUC [Fam1B.1 aminoacylation ribozyme variant]” the self-aminoacylation (biotinyl-Phe-oxazolone) was 0.955, the self-aminoacylation (biotinyl-Ile-oxazolone) was 0.658 and the self-aminoacylation (biotinyl-Met-oxazolone) was 0.724. The self-aminoacylation (biotinyl-Val-oxazolone) was 1.05, the self-aminoacylation (biotinyl-Leu-oxazolone) was 0.636 and the self-aminoacylation (biotinyl-Trp-oxazolone) was 0.796.

For “CCACACUUCAGGCAAUCGGCC [Fam1B.1 aminoacylation ribozyme variant]”, the self-aminoacylation (biotinyl-Phe-oxazolone) was 13.1, the self-aminoacylation (biotinyl-Ile-oxazolone) was 2.61 and the self-aminoacylation (biotinyl-Met-oxazolone) was 2.15. It also gave a self-aminoacylation (biotinyl-Val-oxazolone) of 3.89, a self-aminoacylation (biotinyl-Leu-oxazolone) of 4.67 and a self-aminoacylation (biotinyl-Trp-oxazolone) of 3.69.

In the case of “CCACACUUCAGGCAAUCGGUG [Fam1B.1 aminoacylation ribozyme variant]”, the self-aminoacylation (biotinyl-Phe-oxazolone) is reported as 36.7, the self-aminoacylation (biotinyl-Ile-oxazolone) is reported as 3.23 and the self-aminoacylation (biotinyl-Met-oxazolone) is reported as 5.39. It also gave a self-aminoacylation (biotinyl-Val-oxazolone) of 3.41, a self-aminoacylation (biotinyl-Leu-oxazolone) of 7.5 and a self-aminoacylation (biotinyl-Trp-oxazolone) of 4.89.

“CCACACUUCAGGCAAUGGGUC [Fam1B.1 aminoacylation ribozyme variant]” gave a self-aminoacylation (biotinyl-Phe-oxazolone) of 0.992, a self-aminoacylation (biotinyl-Ile-oxazolone) of 0.733 and a self-aminoacylation (biotinyl-Met-oxazolone) of 0.802. For the same sequence, the self-aminoacylation (biotinyl-Val-oxazolone) was 0.722, the self-aminoacylation (biotinyl-Leu-oxazolone) was 0.702 and the self-aminoacylation (biotinyl-Trp-oxazolone) was 0.952.

“CCACACUUCAGGCAAUUGGUC [Fam1B.1 aminoacylation ribozyme variant]” showed a self-aminoacylation (biotinyl-Phe-oxazolone) of 0.558, a self-aminoacylation (biotinyl-Ile-oxazolone) of 0.887 and a self-aminoacylation (biotinyl-Met-oxazolone) of 0.647. It also gave a self-aminoacylation (biotinyl-Val-oxazolone) of 0.83, a self-aminoacylation (biotinyl-Leu-oxazolone) of 0.823 and a self-aminoacylation (biotinyl-Trp-oxazolone) of 0.556.

“CCACACUUCAGGCAUUCGGUC [Fam1B.1 aminoacylation ribozyme variant]” gave a self-aminoacylation (biotinyl-Phe-oxazolone) of 1.09, a self-aminoacylation (biotinyl-Ile-oxazolone) of 2.2 and a self-aminoacylation (biotinyl-Met-oxazolone) of 1.88. For the same sequence, the self-aminoacylation (biotinyl-Val-oxazolone) was 2.48, the self-aminoacylation (biotinyl-Leu-oxazolone) was 2.2 and the self-aminoacylation (biotinyl-Trp-oxazolone) was 2.27.

“CCACACUUCAGGCCAUCGGUC [Fam1B.1 aminoacylation ribozyme variant]” showed a self-aminoacylation (biotinyl-Phe-oxazolone) of 7.44, a self-aminoacylation (biotinyl-Ile-oxazolone) of 2.37 and a self-aminoacylation (biotinyl-Met-oxazolone) of 1.94. The self-aminoacylation (biotinyl-Val-oxazolone) was 2.49, the self-aminoacylation (biotinyl-Leu-oxazolone) was 1.77 and the self-aminoacylation (biotinyl-Trp-oxazolone) was 1.69.

“CCACACUUCAUGCAAUCGGUC [Fam1B.1 aminoacylation ribozyme variant]” was tested, and the self-aminoacylation (biotinyl-Phe-oxazolone) was 0.866, the self-aminoacylation (biotinyl-Ile-oxazolone) was 0.819 and the self-aminoacylation (biotinyl-Met-oxazolone) was 0.687. The self-aminoacylation (biotinyl-Val-oxazolone) was 0.9, the self-aminoacylation (biotinyl-Leu-oxazolone) was 0.693 and the self-aminoacylation (biotinyl-Trp-oxazolone) was 0.689.
